# Laboratory results: patent US20250136709A1 (DEVELOPMENT CENTER FOR BIOTECHNOLOGY, published 2025)
# Read-outs that look alike come from different tables or passages of the source.
# B1: 10H5-CDRH3F95A (antibody, V domains shown)
# VH: QVKLQQSGAELVKPGASVKISCKASGYVFSSYWINWVKQRPGKGLEWIGQIYPGDGNTNYNRNFKGKATLTADKSSSTAYMQLSSLTSEDSAVYFCAGAADWGQGTTVTVSS
# VL: DIELTQSPSSLSASLGERVSLTCRASQDIGDSLIWLQQEPDGTIKRLIYATSSLDSGVPKRFSGSRSGTSYSLTISSVEAEDAATYYCQQYSGYPLTFGSGTKLEIK
# notes: Alanine mutant of 10H5
# B2: 10H5-CDRL3Y91A (antibody, V domains shown)
# VH: QVKLQQSGAELVKPGASVKISCKASGYVFSSYWINWVKQRPGKGLEWIGQIYPGDGNTNYNRNFKGKATLTADKSSSTAYMQLSSLTSEDSAVYFCAGFADWGQGTTVTVSS
# VL: DIELTQSPSSLSASLGERVSLTCRASQDIGDSLIWLQQEPDGTIKRLIYATSSLDSGVPKRFSGSRSGTSYSLTISSVEAEDAATYYCQQASGYPLTFGSGTKLEIK
# notes: Alanine mutant of 10H5
# B3: HuB10/HdB7 (antibody, V domains shown)
# VH: QVQLVQSGAEVKKPGASVKVSCKASGYVFSSYWINWVRQAPGQGLEWMGQIYPGDGNTNYNRNFKGRVTLTADKSTSTAYMELSSLRSEDTAVYYCAGFADWGQGTLVTVSS
# VL: DIQLTQSPSSLSASVGDRVTITCRASQDIGDSLIWLQQKPGKAPKRLIYATSSLDSGVPSRFSGSRSGTDYTLTISSLQPEDFATYYCQQYSGYPLTFGQGTKVEIK
# notes: Humanized 10H5; also called HuVHB10/HdVLB7; humanized 10H5 derivative
# B4: HuB9/HdB7 (antibody, V domains shown)
# VH: QVQLVQSGAEVKKPGASVKVSCKASGYVFSSYWINWVRQAPGQGLEWMGQIYPGDGNTNYNRNFKGRATLTADKSTSTAYMELSSLRSEDTAVYFCAGFADWGQGTLVTVSS
# VL: DIQLTQSPSSLSASVGDRVTITCRASQDIGDSLIWLQQKPGKAPKRLIYATSSLDSGVPSRFSGSRSGTDYTLTISSLQPEDFATYYCQQYSGYPLTFGQGTKVEIK
# notes: Humanized 10H5; also called HuVHB9/HdVLB7; humanized 10H5 derivative
# B5: HuB10/HdB6 (antibody, V domains shown)
# VH: QVQLVQSGAEVKKPGASVKVSCKASGYVFSSYWINWVRQAPGQGLEWMGQIYPGDGNTNYNRNFKGRVTLTADKSTSTAYMELSSLRSEDTAVYYCAGFADWGQGTLVTVSS
# VL: DIQLTQSPSSLSASVGDRVTITCRASQDIGDSLIWLQQKPGKAIKRLIYATSSLDSGVPSRFSGSRSGTDYTLTISSVQPEDFATYYCQQYSGYPLTFGQGTKVEIK
# notes: Humanized 10H5; also called HuVHB10/HdVLB6; humanized 10H5 derivative
# How the values were obtained:
# mouse CD73 = molecular target: T1, mouse CD73 (mouse, UniProt Q61503 29-551, limits assumed); assay: ELISA, antibody titrated; left panel mCD73
# T1 construct: Expressed in F293 cells and used in ELISA
# T1 sequence (looked up): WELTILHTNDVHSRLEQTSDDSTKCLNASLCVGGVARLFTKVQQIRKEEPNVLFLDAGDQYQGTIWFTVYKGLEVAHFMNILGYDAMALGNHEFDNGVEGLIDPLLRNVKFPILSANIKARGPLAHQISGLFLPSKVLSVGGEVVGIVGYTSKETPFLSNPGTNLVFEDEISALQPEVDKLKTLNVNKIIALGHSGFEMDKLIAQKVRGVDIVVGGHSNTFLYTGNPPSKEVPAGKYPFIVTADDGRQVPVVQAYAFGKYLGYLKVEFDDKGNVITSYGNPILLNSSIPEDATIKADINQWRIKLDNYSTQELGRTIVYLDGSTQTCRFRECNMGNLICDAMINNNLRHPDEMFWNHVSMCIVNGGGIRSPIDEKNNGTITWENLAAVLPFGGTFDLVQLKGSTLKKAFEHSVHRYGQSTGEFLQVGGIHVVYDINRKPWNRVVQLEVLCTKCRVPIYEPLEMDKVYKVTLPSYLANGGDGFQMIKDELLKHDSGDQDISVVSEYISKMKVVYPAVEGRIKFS
# Source text: The binding affinities of the above four mutated antibodies, 10H5 antibody, Oleclumab, and IgG to mouse CD73 and mouse CD73 hF1 were respectively analyzed by using ELISA assay.
# human CD73 [1] = molecular target: T2, human CD73 (human, UniProt P21589 27-549); assay: Biacore SPR
# T2 construct: the antigen of the Biacore assay is only called human CD73 antigen; also called human CD73 antigen; Recombinant Human CD73-6xHis
# T2 sequence: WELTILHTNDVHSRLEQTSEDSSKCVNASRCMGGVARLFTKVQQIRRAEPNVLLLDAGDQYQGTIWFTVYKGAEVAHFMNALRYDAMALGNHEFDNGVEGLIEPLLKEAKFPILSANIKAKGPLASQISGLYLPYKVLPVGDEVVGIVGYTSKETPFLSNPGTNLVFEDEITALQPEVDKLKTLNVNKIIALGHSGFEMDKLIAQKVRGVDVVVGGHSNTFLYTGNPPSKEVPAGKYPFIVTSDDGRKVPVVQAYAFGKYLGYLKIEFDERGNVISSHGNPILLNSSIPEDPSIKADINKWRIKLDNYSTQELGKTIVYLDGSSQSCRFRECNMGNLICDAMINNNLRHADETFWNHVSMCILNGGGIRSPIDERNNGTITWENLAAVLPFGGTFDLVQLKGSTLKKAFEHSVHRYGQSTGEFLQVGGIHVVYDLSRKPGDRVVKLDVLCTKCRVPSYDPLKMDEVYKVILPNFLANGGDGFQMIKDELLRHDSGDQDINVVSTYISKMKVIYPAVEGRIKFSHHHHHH
# [2] = molecular target: T3, human CD73 on cells (MDA-MB-231, Calu-1, KLM-1, human CD4+ T-cells) (human, UniProt P21589 27-549); assay: cell-based or functional assay
# T3 sequence: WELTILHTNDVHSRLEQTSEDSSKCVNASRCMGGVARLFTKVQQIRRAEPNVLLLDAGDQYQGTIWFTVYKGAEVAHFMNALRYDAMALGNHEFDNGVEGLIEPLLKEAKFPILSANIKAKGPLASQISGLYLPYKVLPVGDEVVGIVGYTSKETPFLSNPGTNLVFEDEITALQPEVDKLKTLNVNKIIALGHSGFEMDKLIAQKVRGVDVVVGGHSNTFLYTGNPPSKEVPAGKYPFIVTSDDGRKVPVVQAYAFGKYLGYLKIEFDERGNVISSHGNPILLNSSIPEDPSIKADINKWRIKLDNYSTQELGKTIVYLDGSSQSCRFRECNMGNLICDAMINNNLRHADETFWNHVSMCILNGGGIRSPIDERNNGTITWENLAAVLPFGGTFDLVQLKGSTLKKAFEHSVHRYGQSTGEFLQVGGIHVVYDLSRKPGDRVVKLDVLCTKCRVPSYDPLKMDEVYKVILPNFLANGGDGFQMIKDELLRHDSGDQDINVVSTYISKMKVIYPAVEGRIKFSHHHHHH
# human CD73 [3] = molecular target: T2, human CD73; assay: Biacore SPR; remark: listed apart in the source
# human CD73 [4] = molecular target: T2, human CD73; assay: Biacore SPR; remark: listed apart in the source
# human CD73 [5] = molecular target: T2, human CD73; assay: Biacore SPR; remark: listed apart in the source
Binder,binding result (mouse CD73),Kd (human CD73 [1]),"AMP concentration in supernatant by LC/MS, MDA-MB-231 cells, 400 µM AMP, 10 nM antibody, 6 hours [2]","AMP concentration in supernatant by LC/MS, MDA-MB-231 cells, 400 µM AMP, 10 nM antibody, 24 hours [2]","AMP consumption, Calu-1 cells, 10 nM antibody, 24 hrs [2]","AMP consumption, MDA-MB-231 cells, 10 nM antibody, 6 hr [2]","AMP consumption, MDA-MB-231 cells, 10 nM antibody, 24 h [2]","CFSE left-shift level of CD3/CD28-activated CD4+ T-cells with 400 µM AMP, 10 nM antibody [2]",koff (human CD73 [3]),kon (human CD73 [3]),koff (human CD73 [4]),kon (human CD73 [4]),koff (human CD73 [5]),kon (human CD73 [5])
B1,no binding (tested: about 5e-8 M),–,–,–,–,–,–,–,–,–,–,–,–,–
B2,no binding (tested: about 5e-8 M),–,–,–,–,–,–,–,–,–,–,–,–,–
B3,–,0.678 nM,331 µM,287 µM,< 20%,< 10%,< 50%,83.4%,6.54e-05 s⁻¹,96400 M⁻¹ s⁻¹,–,–,–,–
B4,–,0.623 nM,345 µM,298 µM,< 20%,< 10%,< 50%,83.5%,–,–,6.36e-05 s⁻¹,102000 M⁻¹ s⁻¹,–,–
B5,–,0.803 nM,336 µM,286 µM,< 20%,< 10%,< 50%,83.7%,–,–,–,–,6.57e-05 s⁻¹,81800 M⁻¹ s⁻¹
